Measured values taken from article PMC5473807, “Distribution and kinetics of the Kv1.3-blocking peptide HsTX1[R14A] in experimental rats” (Scientific Reports, 2017).
Like-named read-outs stand apart in the source and are kept apart here.

Assay: In vivo biodistribution by organ and tissue extraction
Set-up: species or system male Wistar rats
Conditions: male, Wistar, total radioactivity, rat, mean ± SD; for tissue uptake dose at 48 h / SUV at 48 h: 2880 min p.i.; for tissue uptake dose at 5 min / SUV at 5 min: 5 min p.i.; for tissue uptake dose at 1 h / SUV at 1 h: 60 min p.i.; for tissue uptake dose at 4 h / SUV at 4 h: 240 min p.i.; for tissue uptake dose at 24 h / SUV at 24 h: 1440 min p.i.
Method: The present study includes data obtained from a total of 50 animals. Four animals (body weight 227 ± 10 g) for each time point were injected intravenously into a tail vein or subcutaneously with approximately 0.3 MBq ([…]) [^64Cu]Cu-NOTA-HsTX1[R14A] conjugate in 0.5 mL electrolyte solution E-153 (Serumwerk Bernburg, Germany). Animals were euthanised at 5, 60, 240, 1440 and 2880 min post-injection. Blood and the major organs were collected, weighed, and counted in a cross-calibrated γ-counter (Isomed 1000, Isomed GmbH, Dresden) and Wallac WIZARD Automatic Gamma Counter (PerkinElmer, Germany). The radioactivity of the tissue samples was decay-corrected and calibrated by comparing the counts in tissue with the counts in aliquots of the injected radiotracer that had been measured in the γ-counter at the same time. The activity in the selected organs was expressed as percent-injected dose per organ (% ID) and the activity concentration in tissues and organs as standardised uptake value (SUV). Values are quoted as mean ± standard error of mean (SEM) for each group of four animals.

[1] = lung, iv, 0.3 MBq, i.v., n=4, read-out: Lung activity amount
[2] = lung, iv, 0.3 MBq, i.v., n=8, read-out: Lung activity amount
[3] = lung, iv, i.v., n=4, read-out: Lung SUV
[4] = lung, iv, i.v., n=8, read-out: Lung SUV
[5] = lung, sc, 0.3 MBq, s.c., n=4, read-out: Lung activity amount
[6] = lung, sc, s.c., n=4, read-out: Lung SUV
[7] = muscle, iv, i.v., n=4, read-out: Muscle SUV
[8] = muscle, iv, i.v., n=8, read-out: Muscle SUV
[9] = muscle, sc, s.c., n=4, read-out: Muscle SUV
[10] = pancreas, iv, 0.3 MBq, i.v., n=4, read-out: Pancreas SUV
[11] = pancreas, iv, 0.3 MBq, i.v., n=4, read-out: Pancreas activity amount
[12] = pancreas, iv, 0.3 MBq, i.v., n=8, read-out: Pancreas SUV
[13] = pancreas, iv, 0.3 MBq, i.v., n=8, read-out: Pancreas activity amount
[14] = pancreas, sc, 0.3 MBq, s.c., n=4, read-out: Pancreas SUV
[15] = pancreas, sc, 0.3 MBq, s.c., n=4, read-out: Pancreas activity amount
[16] = spleen, iv, 0.3 MBq, i.v., n=4, read-out: Spleen SUV
[17] = spleen, iv, 0.3 MBq, i.v., n=4, read-out: Spleen activity amount
[18] = spleen, iv, 0.3 MBq, i.v., n=8, read-out: Spleen SUV
[19] = spleen, iv, 0.3 MBq, i.v., n=8, read-out: Spleen activity amount
[20] = spleen, sc, 0.3 MBq, s.c., n=4, read-out: Spleen SUV
[21] = spleen, sc, 0.3 MBq, s.c., n=4, read-out: Spleen activity amount
[22] = stomach, iv, 0.3 MBq, i.v., n=4, read-out: Stomach activity amount
[23] = stomach, iv, 0.3 MBq, i.v., n=8, read-out: Stomach activity amount
[24] = stomach, sc, 0.3 MBq, s.c., n=4, read-out: Stomach activity amount
[25] = testes, iv, 0.3 MBq, i.v., n=4, read-out: Testes SUV

CSCC[C@@H]1NC(=O)[C@@H]2CSSC[C@H](NC(=O)[C@H](CO)NC(=O)[C@H](C)NC(=O)COCCOCCNC(=O)CN3CCN(CC(=O)O)CCN(CC(=O)O)CC3)C(=O)N[C@@H](CCCNC(=N)N)C(=O)N[C@@H]([C@@H](C)O)C(=O)N3CCC[C@H]3C(=O)N[C@@H](CCCCN)C(=O)N[C@@H](CC(=O)O)C(=O)N[C@H]3CSSC[C@H](NC(=O)[C@H](CCCCN)NC(=O)[C@H](CCCNC(=N)N)NC(=O)[C@H](CC(N)=O)NC1=O)C(=O)N[C@@H](CCCCN)C(=O)N[C@H]1CSSC[C@H](NC(=O)[C@@H]4CCCN4C(=O)[C@H](CC(=O)O)NC(=O)[C@H](C)NC3=O)C(=O)N[C@@H](C)C(=O)N[C@@H](CCCCN)C(=O)N[C@@H](CCC(=O)O)C(=O)N[C@@H]([C@@H](C)O)C(=O)NCC(=O)N[C@@H](CSSC[C@@H](C(N)=O)NC(=O)[C@H](CCCNC(=N)N)NC(=O)[C@H](CC(N)=O)NC1=O)C(=O)N1CCC[C@H]1C(=O)N[C@@H](Cc1ccc(O)cc1)C(=O)NCC(=O)N[C@@H](CCCCN)C(=O)N2 [[^64Cu]Cu-NOTA-HsTX1[R14A], metal not drawn]
tissue uptake dose at 48 h (liver, sc, 0.3 MBq, s.c., n=4, read-out: Liver activity amount): 7.85 ± 0.49 %ID
tissue uptake dose at 5 min [1]: 1.44 ± 0.18 %ID
tissue uptake dose at 1 h [2]: 1.24 ± 0.3 %ID
tissue uptake dose at 4 h [1]: 0.92 ± 0.12 %ID
tissue uptake dose at 24 h [2]: 0.5 ± 0.05 %ID
tissue uptake dose at 48 h [1]: 0.46 ± 0.06 %ID
SUV at 5 min [3]: 2.87 ± 0.32 SUV
SUV at 1 h [4]: 1.98 ± 0.17 SUV
SUV at 4 h [3]: 1.24 ± 0.1 SUV
SUV at 24 h [4]: 0.78 ± 0.13 SUV
SUV at 48 h [3]: 0.55 ± 0.03 SUV
tissue uptake dose at 1 h [5]: 1.64 ± 0.24 %ID
tissue uptake dose at 4 h [5]: 1.04 ± 0.08 %ID
tissue uptake dose at 24 h [5]: 0.49 ± 0.02 %ID
tissue uptake dose at 48 h [5]: 0.33 ± 0.01 %ID
SUV at 1 h [6]: 2.1 ± 0.33 SUV
SUV at 4 h [6]: 1.32 ± 0.12 SUV
SUV at 24 h [6]: 0.63 ± 0.02 SUV
SUV at 48 h [6]: 0.47 ± 0.01 SUV
SUV at 5 min [7]: 0.43 ± 0.03 SUV
SUV at 1 h [8]: 0.17 ± 0.06 SUV
SUV at 4 h [7]: 0.07 SUV
SUV at 24 h [8]: 0.18 ± 0.02 SUV
SUV at 48 h [7]: 0.19 ± 0.01 SUV
SUV at 1 h [9]: 0.15 ± 0.02 SUV
SUV at 4 h [9]: 0.08 ± 0.01 SUV
SUV at 24 h [9]: 0.19 ± 0.01 SUV
SUV at 48 h [9]: 0.16 SUV
SUV at 5 min [10]: 0.64 ± 0.09 SUV
tissue uptake dose at 5 min [11]: 0.11 ± 0.03 %ID
SUV at 1 h [12]: 0.3 ± 0.04 SUV
tissue uptake dose at 1 h [13]: 0.06 ± 0.02 %ID
SUV at 4 h [10]: 0.24 ± 0.01 SUV
tissue uptake dose at 4 h [11]: 0.08 %ID
SUV at 24 h [12]: 0.62 ± 0.16 SUV
tissue uptake dose at 24 h [13]: 0.2 ± 0.16 %ID
SUV at 48 h [10]: 0.32 ± 0.01 SUV
tissue uptake dose at 48 h [11]: 0.08 ± 0.01 %ID
SUV at 1 h [14]: 0.29 ± 0.03 SUV
tissue uptake dose at 1 h [15]: 0.11 ± 0.03 %ID
SUV at 4 h [14]: 0.25 SUV
tissue uptake dose at 4 h [15]: 0.08 ± 0.01 %ID
SUV at 24 h [14]: 0.48 ± 0.02 SUV
tissue uptake dose at 24 h [15]: 0.15 ± 0.01 %ID
SUV at 48 h [14]: 0.28 ± 0.02 SUV
tissue uptake dose at 48 h [15]: 0.07 ± 0.01 %ID
SUV at 5 min [16]: 4.06 ± 0.6 SUV
tissue uptake dose at 5 min [17]: 0.83 ± 0.12 %ID
SUV at 1 h [18]: 3.42 ± 0.42 SUV
tissue uptake dose at 1 h [19]: 0.79 ± 0.11 %ID
SUV at 4 h [16]: 2.4 ± 0.1 SUV
tissue uptake dose at 4 h [17]: 0.67 ± 0.06 %ID
SUV at 24 h [18]: 0.83 ± 0.26 SUV
tissue uptake dose at 24 h [19]: 0.18 ± 0.04 %ID
SUV at 48 h [16]: 0.56 ± 0.05 SUV
tissue uptake dose at 48 h [17]: 0.16 ± 0.01 %ID
SUV at 1 h [20]: 4 ± 0.21 SUV
tissue uptake dose at 1 h [21]: 1.08 ± 0.03 %ID
SUV at 4 h [20]: 2.84 ± 0.25 SUV
tissue uptake dose at 4 h [21]: 0.75 ± 0.03 %ID
SUV at 24 h [20]: 0.59 ± 0.03 SUV
tissue uptake dose at 24 h [21]: 0.15 %ID
SUV at 48 h [20]: 0.47 ± 0.04 SUV
tissue uptake dose at 48 h [21]: 0.15 ± 0.01 %ID
tissue uptake dose at 5 min [22]: 0.67 ± 0.09 %ID
tissue uptake dose at 1 h [23]: 1.28 ± 1.2 %ID
tissue uptake dose at 4 h [22]: 1.52 ± 1.06 %ID
tissue uptake dose at 24 h [23]: 1.56 ± 1.04 %ID
tissue uptake dose at 48 h [22]: 1.46 ± 0.37 %ID
tissue uptake dose at 1 h [24]: 1.14 ± 0.45 %ID
tissue uptake dose at 4 h [24]: 0.6 ± 0.03 %ID
tissue uptake dose at 24 h [24]: 0.82 ± 0.07 %ID
tissue uptake dose at 48 h [24]: 1.72 ± 1.02 %ID
SUV at 5 min [25]: 0.24 ± 0.03 SUV
tissue uptake dose at 5 min (testes, iv, 0.3 MBq, i.v., n=4, read-out: Testes activity amount): 0.27 ± 0.05 %ID
SUV at 1 h (testes, iv, 0.3 MBq, i.v., n=8, read-out: Testes SUV): 0.16 ± 0.01 SUV
tissue uptake dose at 1 h (testes, iv, 0.3 MBq, i.v., n=8, read-out: Testes activity amount): 0.23 ± 0.02 %ID
SUV at 4 h [25]: 0.13 ± 0.01 SUV
